Source: patent CN112552399A (HENGYI BIOMEDICAL TECH SHANGHAI CO LTD, dated 2021)

Molecular target: T1, SARS-CoV-2 S1亚基 (SARS-CoV-2, UniProt P0DTC2 16-685)
T1 construct: also called S1蛋白
Assay: ELISA, coated S1, antibody detected with HRP goat anti-human IgG

Row | Binder | binding result
1 | 抗体37G2 (antibody, V domains shown) VH: QVQLVQSGAEVKKPGSSVKVSCKASGGTFSSYAITWVRQAPGQGLEWMGGIIPIFGTANFAQKFQGRVTITADESTSTAYMELSSLRSEDTAVYYCAHLGGFADPFDYWGQGTLVTVSS VL: EIVLTQSPATLSLSPGERATLSCRASQSVSNYLAWYQQKAGQAPRVLIYDAFNRATGIPARFSGSGSGTDFTLTISSLEPEDFAVYYCQQRSNWPPRITFGQGTRLEIK | no binding (tested: 1 μg/mL)
2 | 抗体31C2 (antibody, V domains shown) VH: QVQLVQSGAEVKKPGSSVKVSCKASGGTFSSYAISWVRQAPGQGLEWMGGIIPIFGTTNYAQKFQGRVTITADESTSTAYMELNSLRSEDTAVYYCAGRSAYGDKGYYFDYWGQGTLVTVSS VL: EIVLTQSPATLSLSPGERATLSCRASQSVSNFLAWYQQKPGQAPRLLIYDASNRATGIPARFSGSGSGTDFTLTISSLQPEDFAVYYCQQRSNWPPQETFGQGTKVEIK | no binding (tested: 1 μg/mL)
